Data from patent US12187807B2, “Antibody molecules to C5AR1 and uses thereof” (Visterra, Inc., priority 2020, dated 2025).
Entries after “also recorded” stand apart in the source; their conditions may differ. Read-outs that look alike come from different tables or passages of the source.

Assays:
C5aR1 (C5aR1-U937 cells) = target: T1, C5aR1 (C5aR1-U937 cells) (Homo sapiens, UniProt P21730, K279N); test: C5a induced calcium flux (Fluo-4), C5aR1-U937 cells; type: cell-based
T1 construct: expressed in transfected cells
T1 sequence (P21730 with tags, fused parts or gaps K279N limits assumed): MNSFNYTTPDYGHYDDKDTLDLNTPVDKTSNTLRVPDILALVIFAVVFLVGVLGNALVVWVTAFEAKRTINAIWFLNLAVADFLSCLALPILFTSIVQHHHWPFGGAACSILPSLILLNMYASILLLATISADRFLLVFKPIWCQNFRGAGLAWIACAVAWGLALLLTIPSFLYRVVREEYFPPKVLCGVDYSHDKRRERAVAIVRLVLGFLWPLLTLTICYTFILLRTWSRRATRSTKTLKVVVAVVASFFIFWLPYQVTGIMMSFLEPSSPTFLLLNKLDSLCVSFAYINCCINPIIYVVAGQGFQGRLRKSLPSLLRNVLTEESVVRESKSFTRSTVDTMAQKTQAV
From the text: (§1) Intracellular calcium is released into the cytoplasm by stimulation of GPCRs and acts as a second messenger of GPCR signaling, commonly used to quantify GPCR agonism and antagonism. As such, calcium flux assays using calcium sensitive dye were utilized to detect cytosolic changes in calcium concentration. […] The dye penetrated the cell membrane and became active once inside the cell. The active form of the dye became fluorescent after binding to intracellular calcium and the fluorescence was used to determine C5aR1 signaling in response to C5a addition. Specifically, stable C5aR1-U937 cells or neutrophils isolated from whole blood were stained with Fluo-4 Direct Calcium Assay kit from Thermo Fisher for 1 hour at 37° C. Next, antibody or antagonist was incubated with the cells for 30 minutes. The basal fluorescence with an excitation at 494 nm and emission at 516 nm was measured for 15 seconds. C5a was added to the cells and the fluorescence was measured over a span of four minutes. The basal read from before C5a stimulation and the max signal after C5a stimulation were used to calculate the response ratio. The potency of the antibodies was assessed for their ability to inhibit intracellular calcium release in C5aR1 expressing cells in the presence of C5a. Similar to the chemotaxis assay, the calcium flux assays were performed using engineered cells stably expressing C5aR1 as well as using human neutrophils.

[1] = target: T2, C5aR1 (human neutrophils) (Homo sapiens, UniProt P21730); test: C5a induced calcium flux (Fluo-4), human neutrophils; type: cell-based
T2 construct: neutrophils isolated from whole blood; host or cells: human neutrophils (cryopreserved, or isolated from whole blood)
T2 sequence (P21730 1-350): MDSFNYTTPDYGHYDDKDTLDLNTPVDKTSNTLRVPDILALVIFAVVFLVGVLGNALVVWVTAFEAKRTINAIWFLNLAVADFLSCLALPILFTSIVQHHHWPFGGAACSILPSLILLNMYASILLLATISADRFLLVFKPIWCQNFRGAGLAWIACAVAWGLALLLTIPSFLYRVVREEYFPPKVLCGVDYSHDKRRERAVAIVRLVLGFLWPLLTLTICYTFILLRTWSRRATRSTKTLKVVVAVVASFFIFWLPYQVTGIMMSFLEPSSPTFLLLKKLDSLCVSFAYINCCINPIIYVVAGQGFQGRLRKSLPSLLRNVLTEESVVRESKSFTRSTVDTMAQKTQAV
From the text: as §1

[2] = target: T3, biotinylated peptide representing the N-terminus of C5aR1 without tyrosine sulfation (Homo sapiens, UniProt P21730); test: Epitope mapping by biolayer interferometry, N-terminus without tyrosine sulfation; type: binding; design: key: “+” indicates binding to the listed peptide; “−” indicates lack of binding to the listed peptide; details: 10 μg/mL of antibody, biotinylated peptide on streptavidin biosensor
T3 construct: the N-terminus without tyrosine sulfation
T3 sequence (P21730 1-37 limits assumed): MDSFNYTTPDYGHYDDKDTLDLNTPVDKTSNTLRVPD
Experimental: The epitope mapping was undertaken, using biolayer interferometry, on a series of exemplary anti-C5aR1 antibodies generated as described in Example 1. Briefly, for each antibody, biotinylated peptides representing ECL2, the N-terminus with tyrosine sulfation, and the N-terminus without tyrosine sulfation, were immobilized in a streptavidin biosensor. Subsequently, the biosensor was exposed to 10 μg/mL of antibody to detect antibody binding to the immobilized peptide. The results of the epitope mapping study are shown in Table 4 (“+” indicates binding to the listed peptide; “−” indicates lack of binding to the listed peptide).

[3] = target: T4, C5aR1 on human neutrophils (Homo sapiens, UniProt P21730); test: Cell surface binding (flow cytometry), human neutrophils; details: half-log titrations 10^−7.5 to 10^−12 M, vs isotype controls
T4 construct: neutrophils isolated from whole blood; host or cells: human neutrophils (cryopreserved, or isolated from whole blood)
T4 sequence (P21730 1-350): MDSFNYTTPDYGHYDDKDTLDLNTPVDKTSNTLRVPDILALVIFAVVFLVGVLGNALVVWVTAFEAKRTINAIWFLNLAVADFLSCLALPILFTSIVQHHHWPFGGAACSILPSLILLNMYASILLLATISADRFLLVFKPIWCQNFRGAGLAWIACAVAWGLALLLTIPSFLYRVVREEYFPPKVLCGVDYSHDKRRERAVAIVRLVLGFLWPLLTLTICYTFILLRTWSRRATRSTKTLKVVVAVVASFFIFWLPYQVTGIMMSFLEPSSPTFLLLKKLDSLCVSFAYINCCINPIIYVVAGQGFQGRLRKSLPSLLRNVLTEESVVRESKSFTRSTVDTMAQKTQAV
Experimental: Follow up screening to ensure specificity was performed by measuring cell surface binding to cells expressing, for example, human C5aR1, human C5aR2, mouse C5aR1, and control cells that were mock transfected. Briefly, cell surface binding was performed on various C5aR1 expressing cell lines (transiently expressed Expi293 cells, stable C5aR1-U937 cells, and neutrophils isolated from whole blood). Briefly, a titration of antibody diluted in flow buffer (1×PBS with 2% fetal bovine serum) was incubated with cells for 1 hour at 4° C. Cells were washed twice with flow buffer. Anti-human-APC secondary antibody was diluted 1:400 in flow buffer and incubated with cells for 30 minutes. Cells were washed twice with flow buffer and resuspended in 100 μL of flow buffer. Fluorescence was measured using the iQue Screen Plus flow cytometer.
Exemplary anti-C5aR1 antibodies generated as described in Example 1 were tested for binding to human neutrophils. Briefly, cryopreserved human neutrophils were obtained from Asarte Biologics.

B1: clone 329: anti-C5aR1 Site II antibody; VH SEQ ID NO: 492, VL SEQ ID NO: 552 (antibody, V domains shown)
VH: QVQLQQSGAELTKPGASVKLSCKASGYTFTNYWMHWVKQRPGQGLEWIGYLNPSSGYTKYNQKFKDKATLTADKSSSTAYMQLNSLTYEDSAVYYCTRSGGDNYGNPYYFDRWGQGTTVTVSS
VL: DVVMTQTPLSLTVSLGDQASISCRSSQSLVHSNGNTYLHWYLQKPGQSPKFLIYKVSNRFSGVPDRFSGSGSGTDFRLKISRVEAEDLGVYFCSQSTLVPLTFGAGTKLEIK
With B1 the “inhibition of C5a induced intracellular calcium flux” value (C5aR1 (C5aR1-U937 cells); listed as 329) was “inhibition of the C5a induced calcium efflux; also recorded: inhibited by antibody 329 in a dose-dependent manner; also recorded: inhibited calcium flux as single agents in a dose-dependent manner”, the “inhibition of C5a induced calcium efflux” value [1] was “inhibition of the C5a induced calcium efflux” and the “Binding to Non-sulfated N-terminal peptide” value [2] was “−”. For the same molecule, the “level of binding to human neutrophils” value [3] was “highest level of neutrophil binding”.

B2: clone 66: anti-C5aR1 Site I antibody; VH SEQ ID NO: 483, VL SEQ ID NO: 543 (antibody, V domains shown)
VH: QVQLQQSDAELVKPGASVKISCKASGYTFIDHAIHWVKQRPEQGLEWIGYISPGNGEIKYNEKFKAKATLTADKSSSAAYMQLNSLTSADSAVYFCKRALFYYTGKYQPMDYWGQGTTVTDSS
VL: DIVMTQSQKFMSTTAGDRVSITCKASQNVGSAVVWYQQKPGRSPKLLIYSSSIRYTGVPDRFTGSGSGTDFTLTINSVQSEDLADYFCQQYNSFPLTFGAGTKLEIK
For B2, the “inhibition of C5a induced intracellular calcium flux” value (C5aR1 (C5aR1-U937 cells)) was “inhibited calcium flux as single agents in a dose-dependent manner”, the “Binding to Non-sulfated N-terminal peptide” value [2] was “−” and the “level of binding to human neutrophils” value [3] was “highest level of neutrophil binding”.

B3: clone 583: anti-C5aR1 Site I antibody; VH SEQ ID NO: 536, VL SEQ ID NO: 595 (antibody, V domains shown)
VH: EVQLVESGGGLVKPGGSLKLSCAASGFTFNAYAMSWVRQTPEKRLEWVASISTGGNTYCPDSVKDRFTVSRDNVRNILYLQMSSLRSEDTAMYYCTRGYQRFSGFAYWGQGTLVTVS
VL: DVVMTQTPLSPPVSLGYQASISCRSSQSLVHSNGNTYLNWYLQKPGQSPKLLIYKVSNRLSGVPDRFSGSGSGTDFTLKISRVETEDLGVYFCSQSTHVPYTFGGGTKLEIK
With B3 the “inhibition of C5a induced intracellular calcium flux” value (C5aR1 (C5aR1-U937 cells)) was “inhibition of the C5a induced calcium efflux”, the “inhibition of C5a induced calcium efflux” value [1] was “inhibition of the C5a induced calcium efflux” and the “Binding to Non-sulfated N-terminal peptide” value [2] was “+”.
